B1: Chorionic somatomammotropin hormone 1 (Homo sapiens), P0DML2 (parent)
chain: MAPGSRTSLLLAFALLCLPWLQEAGAVQTVPLSRLFDHAMLQAHRAHQLAIDTYQEFEETYIPKDQKYSFLHDSQTSFCFSDSIPTPSNMEETQQKSNLELLRISLLLIESWLEPVRFLRSMFANNLVYDTSDSDDYHLLKDLEEGIQTLMGRLEDGSRRTGQILKQTYSKFDTNSHNHDALLKNYGLLYCFRKDMDKVETFLRMVQCRSVEGSCGF
partner: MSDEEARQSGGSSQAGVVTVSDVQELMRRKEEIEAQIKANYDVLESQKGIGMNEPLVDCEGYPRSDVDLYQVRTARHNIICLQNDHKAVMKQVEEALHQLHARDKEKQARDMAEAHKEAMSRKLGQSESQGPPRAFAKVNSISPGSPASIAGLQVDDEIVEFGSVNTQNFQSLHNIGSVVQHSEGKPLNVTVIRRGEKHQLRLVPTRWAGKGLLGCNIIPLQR
B2: 26S proteasome non-ATPase regulatory subunit 9 (Homo sapiens), O00233 (parent)
chain: B1 partner
B3: Heterogeneous nuclear ribonucleoprotein A1 (Homo sapiens), P09651-2 (parent)
chain: MSKSESPKEPEQLRKLFIGGLSFETTDESLRSHFEQWGTLTDCVVMRDPNTKRSRGFGFVTYATVEEVDAAMNARPHKVDGRVVEPKRAVSREDSQRPGAHLTVKKIFVGGIKEDTEEHHLRDYFEQYGKIEVIEIMTDRGSGKKRGFAFVTFDDHDSVDKIVIQKYHTVNGHNCEVRKALSKQEMASASSSQRGRSGSGNFGGGRGGGFGGNDNFGRGGNFSGRGGFGGSRGGGGYGGSGDGYNGFGNDGSNFGGGGSYNDFGNYNNQSSNFGPMKGGNFGGRSSGPYGGGGQYFAKPRNQGGYGGSSSSSSYGSGRRF
partner: B1 partner
B4: Transcription factor E2-alpha (Homo sapiens), P15923-1 (parent)
chain: MNQPQRMAPVGTDKELSDLLDFSMMFPLPVTNGKGRPASLAGAQFGGSGLEDRPSSGSWGSGDQSSSSFDPSRTFSEGTHFTESHSSLSSSTFLGPGLGGKSGERGAYASFGRDAGVGGLTQAGFLSGELALNSPGPLSPSGMKGTSQYYPSYSGSSRRRAADGSLDTQPKKVRKVPPGLPSSVYPPSSGEDYGRDATAYPSAKTPSSTYPAPFYVADGSLHPSAELWSPPGQAGFGPMLGGGSSPLPLPPGSGPVGSSGSSSTFGGLHQHERMGYQLHGAEVNGGLPSASSFSSAPGATYGGVSSHTPPVSGADSLLGSRGTTAGSSGDALGKALASIYSPDHSSNNFSSSPSTPVGSPQGLAGTSQWPRAGAPGALSPSYDGGLHGLQSKIEDHLDEAIHVLRSHAVGTAGDMHTLLPGHGALASGFTGPMSLGGRHAGLVGGSHPEDGLAGSTSLMHNHAALPSQPGTLPDLSRPPDSYSGLGRAGATAAASEIKREEKEDEENTSAADHSEEEKKELKAPRARTSPDEDEDDLLPPEQKAEREKERRVANNARERLRVRDINEAFKELGRMCQLHLNSEKPQTKLLILHQAVSVILNLEQQVRERNLNPKAACLKRREEEKVSGVVGDPQMVLSAPHPGLSEAHNPAGHM
partner: B1 partner

The first experiment covers variants of B1. The settings on record: with psmd9_human PSMD9, O00233.
As to F217G, the “effect of a mutation on the interaction” value is listed as “with no effect”.

Variants of B2 are the subject of the next experiment. The settings on record: with HNRNPA1, P09651-2.
For Q181G, the “effect of a mutation on the interaction” value is “disrupting interaction strength”.
As for F162G, the “effect of a mutation on the interaction” value was “disrupting interaction strength”.
With L124G;Q126G;E128G, the “effect of a mutation on the interaction” value is listed as “disrupting interaction strength”.
On the same count and under the same terms, the result for L173G reads “with no effect”; that for L153G, “disrupting interaction strength”.

A further experiment covers variants of B2. The settings on record: with csh1_human CSH1, P0DML2.
As to Q181G, the “effect of a mutation on the interaction” value is listed as “decreasing interaction strength”.
On the same count and under the same terms, the result for F162G reads “disrupting interaction strength”; that for L124G;Q126G;E128G, “disrupting interaction strength”.
For the variant L173G, the “effect of a mutation on the interaction” value was “with no effect”.
In the case of L153G, the “effect of a mutation on the interaction” value is on record as “disrupting interaction strength”.

The next experiment covers variants of B2. The note with it: with HNRNPA1, P09651-2. The source holds these as a separate data set.
With Q181G, the “effect of a mutation on the interaction” value was “decreasing interaction strength”.
Still for that read-out and setting: the value for L124G;Q126G;E128G was “decreasing interaction strength”.

Another experiment covers variants of B2. The note with it: with rs14_human RPS14, P62263.
Q181G: the “effect of a mutation on the interaction” value is “disrupting interaction strength”.
The same measure, in the same setting: the result for F162G reads “decreasing interaction strength”; that for L124G;Q126G;E128G, “disrupting interaction strength”.
Still for that read-out and setting: the value for L173G was “with no effect”; that for L153G was “disrupting interaction strength”.

A further experiment covers variants of B2. The note with it: with IL6R.
Regarding Q181G, the “effect of a mutation on the interaction” value was “disrupting interaction strength”.
On the same count and under the same terms, the result for F162G reads “disrupting interaction strength”.
On the same count and under the same terms, the result for L124G;Q126G;E128G reads “disrupting interaction strength”; that for L173G, “with no effect”.
Consider L153G, for which the “effect of a mutation on the interaction” value was “disrupting interaction strength”.

In another experiment the parent is B2. The note with it: with csh1_human CSH1, P0DML2. This is another data set of the same source.
Consider F162G, for which the “effect of a mutation on the interaction” value is “decreasing interaction strength”.
As for L153G, the “effect of a mutation on the interaction” value is “decreasing interaction strength”.

The next experiment covers variants of B2. The note with it: with HNRNPA1, P09651-2. The source holds these as a separate data set.
F162G: the “effect of a mutation on the interaction” value is reported as “decreasing interaction strength”.
Same read-out and setting: the value for L153G was “decreasing interaction strength”.

The variants in the next experiment derive from B3. The note with it: with psmd9_human PSMD9, O00233.
On to F320G, for which the “effect of a mutation on the interaction” value is “disrupting interaction strength”.

In another experiment the parent is B3. The settings on record: with psmd9_human PSMD9, O00233. This is another data set of the same source.
As to F320G, the “effect of a mutation on the interaction” value is given as “decreasing interaction strength”.

In the next experiment the parent is B3. The settings on record: with psmd9_human PSMD9, O00233. The source holds these as a separate data set.
For F320G, the “effect of a mutation on the interaction” value is “with no effect”.

The variants in another experiment derive from B4. The note with it: with psmd9_human PSMD9, O00233.
On to M654G, for which the “effect of a mutation on the interaction” value was “decreasing interaction strength”.
